Data reported in patent US20240254229A1 (Molecular Partners, published 2024).

What was measured:
[1] = molecular target: T1, extracellular domain of human CD70 (SEQ ID NO: 89), hCD70-Fc-trimer, ACRO Biosystems (human, UniProt P32970 52-193, chemically biotinylated where the biotinylated form was used); test: SPR (ProteOn XPR36), target on GLC chip
T1 construct: also called human CD70-Fc-trimer; Bio.CD70
T1 sequence: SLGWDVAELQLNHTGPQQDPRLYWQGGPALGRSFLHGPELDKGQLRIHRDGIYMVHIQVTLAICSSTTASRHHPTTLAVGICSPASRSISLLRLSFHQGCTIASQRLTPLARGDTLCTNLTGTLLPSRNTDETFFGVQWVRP

[2] = molecular target: T2, hCD33 and hCD123 immobilized simultaneously on one switchSENSE chip (ratio 2:1, CD33:CD123) (human, UniProt P20138 18-259; P26951 19-305, limits assumed); test: switchSENSE, CD33 and CD123 on one chip; fast phase (affinity); fast phase (affinity)
T2 construct: Not a complex: two separate ligands on one surface; used for avidity values and for off-rates; also called both ligands; both targets attached to the surface of the chip
Protocol: (§1) The designed ankyrin repeat proteins: DARPin® protein #20, DARPin® protein #21, DARPin® protein #22, DARPin® protein #27, DARPin® protein #40 and DARPin® protein #41 were tested in a concentration of 0.16 and 64 nM (in a buffer PE140 containing 10 mM Na2HPO4/NaH2PO4, 140 mM NaCl, 0.05% Tween20, 50 μM EDTA, 50 μM EGTA) for binding against two ligands hCD33 and hCD123, which both were immobilized simultaneously to DNA nanolevers, on the surface, at a pre-defined ratio (2:1, CD33:CD123) and 10% density (100:50) on an ADP-48-1-0 chip, where 100% density 1000 receptors/μm2 (preincubated R1-B48-CD123 and G1-A48-CD33 (100 nM) diluted in cNL-48 (dark)). Briefly the following steps were performed: [0724] Conjugation. Amine coupling of the two ligands (CD33 and CD123) to the DNA nanolever (A48, B48, respectively) and purification of the conjugates using the proFIRE® solution (Dynamic Biosensors GmbH) at 25° C. [0725] Evaluation of all the combined affinity and avidity of all different proteins to both ligands attached on the surface of an ADP chip using a DRX+ instrument (dynamic BIOSENSORS). [0726] Statistical analysis (repeatability from 2 to 5 times) including regeneration of the chip surface every concentration analyzed and long dissociation times and data were fitted using a bi-exponential global fit.

[3] = molecular target: T3, hCD33 (recombinant, construct not stated) (human, UniProt P20138 18-259, limits assumed); test: switchSENSE; KD,1 (affinity)
T3 construct: also called CD33 (Ligand 1)
Protocol: as §1

[4] = molecular target: T4, hCD123 (recombinant, construct not stated) (human, UniProt P26951 19-305, limits assumed); test: switchSENSE; KD,1 (affinity)
T4 construct: also called CD123 (Ligand 2)
T4 sequence (looked up): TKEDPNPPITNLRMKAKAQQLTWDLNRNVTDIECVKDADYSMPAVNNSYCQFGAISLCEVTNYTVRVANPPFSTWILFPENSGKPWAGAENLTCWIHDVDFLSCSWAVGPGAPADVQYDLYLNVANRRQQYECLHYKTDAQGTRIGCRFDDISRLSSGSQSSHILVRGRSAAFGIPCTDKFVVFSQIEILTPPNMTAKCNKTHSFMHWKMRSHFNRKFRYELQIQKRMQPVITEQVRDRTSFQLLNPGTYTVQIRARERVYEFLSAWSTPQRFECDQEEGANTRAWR
Protocol: as §1

[5] = molecular target: T2, hCD33 and hCD123 immobilized …; test: switchSENSE, hCD33 and hCD123 co-immobilised 2:1; panel headed CD33, column KD2 (avidity, simultaneous binding of CD33 and CD123 per paragraph 696)
Protocol: as §1

T3 sequence (P20138 18-259 limits assumed): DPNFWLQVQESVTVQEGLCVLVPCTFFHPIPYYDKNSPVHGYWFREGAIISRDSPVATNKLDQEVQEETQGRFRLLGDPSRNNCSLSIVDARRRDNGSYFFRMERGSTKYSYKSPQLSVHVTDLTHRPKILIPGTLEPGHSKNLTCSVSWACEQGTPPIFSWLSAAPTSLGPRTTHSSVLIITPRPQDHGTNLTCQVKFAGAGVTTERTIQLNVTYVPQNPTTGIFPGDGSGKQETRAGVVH

- koff [2]: ~0.01 s⁻¹
- Kd [3]: ~20 nM
- Kd [4]: ~4.5 nM
- Kd [5]: 0.17 nM
B1: DARPin® protein #27 (designed binder)
chain: DLGKKLLEAALEGQLDEVRELLKAGADVNAKDQEGYTPLHLAAALGHLEIVEVLLKAGADVNAKDSIGRTPLHLAAYKGHLEIVEVLLKAGADVNAQDLLGETPADLAAEQGHQDIAEVLQKAAGSPTPTPTTPTPTPTTPTPTPTGSDLGVKLLLAASRGQLDEVRILLKAGADVNAKDIDEGYTPLHIAAYYGHLEIVEVLLKAGADVNAKDRYGKTPLHLAAISGHLEIVEVLLKAGADVNAQDDKGDTPADLAADYGHQDIAEVLQKAAGSPTPTPTTPTPTPTTPTPTPTGSDLGQKLLEAAWAGQDDEVRELLKAGADVNAKNSRGWTPLHTAAQTGHLEIFEVLLKAGADVNAKDDKGVTPLHLAAALGHLEIVEVLLKAGADVNAQDSWGTTPADLAAKYGHEDIAEVLQKAA
notes: CD123-CD33-CD3; also called αCD123-aCD33-αCD3_1; not shown: N-terminal His-tag
- binding result [1]: no binding (tested: 100 nM (highest concentration))
